In the supplement of paper PMC11502859:
“And” between values parts separate entries of the source, which are not always exact repeats. Identical values can stand only once.

Test system: HEK293T
Assay: median enrichment of reporter reads in eGFP-reduced (low/intermediate) vs eGFP-high sorted cells (eGFP-extension fusion abundance) (ratio); higher = stronger loss of eGFP-fusion protein abundance (more destabilising extension)
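Also: lentiviral eGFP-IRES-mCherry reporter pool sorted by FACS 96 h post-transduction, gated on mCherry-high cells, Illumina read counts normalized per million, median across four biological replicates.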

Substance	median enrichment
ETSGFSSQTF [ELP5]	0.462
KFRSPHFSAPRMVLFIFHHL [SLC43A3]	9.56
RPPLSPECNKHQIPCVK [POLR2I]	3.52
QNLREPVV [CEP89]	0.464
YCLKGFY [GNL2]	8.39
WGSGFVSAAAYPCPMCPPLPVLRASGMVQALRKVRVAVWEPLCLAPGYPGPGNLRAGERWGGRHAEVLLVTGLPSLTCTYLHP [SLC36A1]	4.72
WCLHHLCSCSLKGSPYSKPPKLGDPSSP [MPIG6B]	6.53
FFFFFFF [Phe07]	7.66
KAQKTEALLPLAGSRDI [PNMA5]	0.301
YFFI [ATP2B1]	9.67
YSQERWKQVTSTIA [OR5K1]	7.21
AAAAAAA [Ala07]	8.7
RFLVTA [GXYLT1]	2.37
SDTLLWSETEDVG [PEX7]	2.59
SGCHGRLSPSIL [KRTAP6-1]	0.506
QGNWALPHVFLLPPRDSNDMYSHLGHACLPNTIWSWTTFDTNQSYWTRPLEDLKYTSHAVVYLGCDSLSNAALGKDESDLQGE [APOBEC2]	6.1
WPSLRPTCTSGSKWVSSGSPARVLSECLCVCINICIPFGSIAAV [XPNPEP3]	17
YKLVLCSG [ZDBF2]	6.14
QYNF [PPP1R42]	0.505
WGFRSAT [KIF15]	1.06
SLLLVPK [RBKS]	1.87
QQQQQQQ [Gln07]	0.347
KRASTSEWPHLCPRC [NUMA1]	0.399
SLYRLRR [ST3GAL6]	3.73
LRPHKHYGRSVGPQHGLPSGRPVLPEEGPACWPGACRHC [ZGPAT]	6.53
RICKRRRHDVLCLH [MED12L]	13.4

Substance	median enrichment
KFGAQTSP [SPRR3]	0.603
GMSFLDLH [LSM5]	0.489
YILNLVCRPSRGIKRLALVVKNKADSQTRSDFCPCSSFDVLSVALFLIASSTCKMLFTFCLG [DAB2]	7.19
CPDHGQGLPPCAPQLSPSKCVLRASLFFTAAATFPHCLRCREGQVPASTGISDKPRAQPTRGSSLHAHTGYGDGGLQVSSARG [SSNA1]	7.23
CNHLTRTIGAPVASAHCLSLEKWRNKCYIYLCV [FAM149A]	6.79
QLSLPPQPGSPALESSVLHAEDAPSLDWSGLLPNDIAQRLWSRHPAEWGPRGCQLGALPLAATLWSGRVLHHQEDPILSSVSC [INAFM1]	4.8
WDSSQFERQ [MYCBP]	0.249
LDRTCLRGRRTLAWAQESEAAFLLRGPSGESGPRYHARTLRGPVSCRRVSTFPPNPGLTALRSARRARAETRVGCGELKEPIK [UQCC3]	3.74
SREDVKCLSVNCSAVSKQSSNLQY [RIT1]	0.34
RGGMGFTDMVLIH [GABRG2]	7.24
LSLTASLK [TEX35]	1.49
WKTCSLSILPMKIHFTHPPPLLFCHVFPSLCIARFEVTDTHPKPCCSQSPILHILMGK [SYNJ2BP]	7.06
RRRRRRRR [Arg08]	1.49
SAHQRAPSPRIAAPTQPGAPDPPGGLRGNRRREGKGPPSPSRPQGAATDWRAAEGGRARAPRGRTIRAPAPRPVPPQARA [TLX3]	3.75
YPSVLHTARGPRMPRPPLAPAGREPDHLPC [CHI3L1]	2.05
LQNPNLELPMLLSYKHTDSGYS [ATP11C]	1.23
YIWLFMHCGMCSSFSVFRYKVLYQSVIYKVYQHKCW [MLH1]	23.5
SPWGGGKG [C6orf47]	1.46
YGTDGRRGPGTPGMGGPNP [GATA2]	1.68
QDLSIF [KCNJ13]	0.364
GGGGGGG [Gly07]	2.97
WAPSCLSRDPGTPPARTLGLSLPRAPPASVDWRVVLPLPRNQPQPR [SLC9A3R2]	18.7
IIIIII [Ile06]	8.61
KQQPV [DPPA2]	0.433
RASSFS [KLHL10]	0.821
WFC [HNRNPF]	2.6

Substance	median enrichment
SSAYLGLPKCWDYRREPNAQPRGVVFRDISESEGETQD [APOC1]	1.19
CGHLSGPGALMEAIGTPELPSHS [ODF2]	0.872
QGAGPWMVPVCLALGMAVEGTWQKQPHVLPCPRPGVDKTRGVFWSPPAELEASHCNFSAQGLLNRCERPVPRVSL [SLC6A13]	14.4
LPRWFQPRHTLVPT [DNAAF5]	4.04
QCLPERVVRWCHVGEQVSFRTQRRPPFCK [ACTR3B]	5.17
ECLSIKSGFAP [NPL]	0.687
WHPCTQEDSAFTKHFHCLAKV [GPR12]	11.3
REGSNGSRELDTVHPNTSPPPGHLEESSARIPRQSSPPAPAVPSCAVLLPHSAPGPCPFIPLKHPLKPLHHFHSQQKVIEHLL [HAUS5]	7
LLRG [ARPP19]	4.64
SRFCHVNVSLSGLQLRRKRRKT [SMIM11A]	5.41
YGFKTFLLHSTNLTSF [SNED1]	33.4
LGLLHLPPSYLVPCRAPGLFGGTLGCTSGLPAPAAWAPPS [REEP4]	5.64
LNGSI [PHF20L1]	0.416
LAQLPLSYSSATPQLPLSPAAARATARPGLSSARLTSARPAGLLKAVGRTPA [MED16]	5.35
LAPRPRETGWRHGAGPSFHGACGCRAGGAAESGPGPLPAGGDFFFSYF [GNA11]	11.8
CTTQDTHSTCMNNTGHTQARA [CCDC40]	1.14
RRINLQRSRQDDLAAWGLLSPRNSHVGFPLPGWPLDLSSKPFLTSS [CHI3L2]	6.12
QCVSRCQ [SPG21]	0.894
KFLSF [FNBP4]	1.62
WKK [JAK2]	0.476
WPRLSTCHLLACLTLRTHLPGPSLFHPREAELPKTQVFSYLFPILRGFP [ZDHHC18]	17.8
KNF [PLXDC2]	0.62
WRGLQGSLLWVPT [RNF152]	6.67
GANASRAAVNLCKD [BDKRB2]	0.298
YMFVWN [STKLD1]	6.18
KTNKMRSSLWSFNSLMQIKTQTSLQALAYYSCIKNFGWGDLGA [MTRNR2L7]	7.22

Substance	median enrichment
WGEPQTLRES [C7orf61]	0.458
QLFTLFFYIYLYIYIKIGS [CBX3]	10.2
LHTQSPGVGHTAVISQS [ALLC]	0.756
YKE [DCAF17]	0.608
GLPS [TMEM107]	0.716
LACPFCPVGPQAHSGVTEA [TLX1]	6.73
WMVLSAGSPLRSGQRKMGGCSSPPQHNDQPPS [NLRP12]	13.1
LGFRSAT [KIF15]	1.28
LGGRCRKHLEQPQSHGAEGAGAAPVIGRGIPSVCSASCLLNKGLFLTHK [CUL9]	14.9
RGTAVPACSPHLGRGSLAAFSLRSRST [AGAP1]	0.942
RGASSSE [SLC1A6]	0.611 and 0.437
CCTKDLLF [GNA13]	1.47
YDLIQHRNDSH [IFNA6]	0.697
ADLTPAQPPPPTSHSGLVLCLLFRTPLCPPKRQKKKKKKKSKKTSEKSAAKKWMSCNFSRDGAGGVCVPTGPGGPLRGGHAAR [PITX1]	10
LRLQCLLRRKIKFTSSKVTLEDRALGMSFFF [OR2C3]	4.08
STSAHILESYYS [ACADL]	0.545
WPG [KDM8]	0.882
LLLLL [Leu05]	4.74
RAAPPSGQKLK [ALG1L]	0.251
LTAPPPPLSPGPGG [VMO1]	8.99
RRLSISRDMVLTQQFPVMAKCSI [IL13RA2]	6.6
WRGARAPWSL [CEP104]	1.95
WEDPPEE [IGF1]	1.04
RKWNS [GCSH]	0.655
RSHL [BBOX1]	11.7
QWSWLRVGEGTWA [RTP2]	2.67

Substance	median enrichment
ELSASARRASLPNQPWVPGSRLEPAINSLFLAPGSNGGPHLRTSGEAIAPSGEVMHFLSTYCLPGPRAHGEETWAHPCRKRDN [TSSK6]	3.11
YYYYYY [Tyr06]	2.81
RSNLYVLPKKPKTAFD [C2orf15]	1.27
KCEACDKVSIWKSHLKDIGEFILERKLTNVRFLTRLGSDSHLEQHTGLHTGEKPYKCNECGKAFGKQSTLIHHQAIHGVGKLD [ZNF611]	6.92
RVFHP [ZSWIM8]	0.463
WQAAGAWGLHWLPPAP [HNF4A]	5.96
GPPSTSQQQD [DENND5A]	0.577
YLARPDPLGPFFFADNHCPAASGTSGSQGTQSSLLAVDFPLLLEPPIKEIQRDSCRPEAEHTFMAGALRGVLDPAPGDTIHFY [PLOD1]	9.08
DISSYLTMLSLLGAVLVGPGPCIMPRSQLQGPSWGPGWALGSGPCCSSPSHQPVPVVRKPGLLSSFLLGECQTQGPSTGLGWE [BAP1]	5.92
QTAKKEKLN [PTMA]	0.399
YDSNPDPGLIFQSPPSCGTASVC [NFKBID]	4.34
QHLPEETPLPTLPERGSLRTGWRRWGPSRAPGALPGMSRPTHPKAGAAAPCCPSPGLGNDDPPKSPSAPQTQGLRPPAPGIRE [FXYD7]	0.759
EPKEVPGTVSDLERSQKENNIIK [CELA2A]	0
LKPERIVK [OR2A25]	0.737
LKILVLLNYLI [TIPARP]	10.8
WAV [GBA2]	0.997
LPARPHGQPVASCRPHSPGTVSCLCVRPPLPCLLRHPPPHIHTQRFDKLLVFNE [SMTN]	7.46
ACKNWFSSLSHFVIHL [Degron CL1]	8.24
LTRKCCCPSSTLRPGAG [FCHO1]	7.02
PGLTALRSARRARAETRVGCGELKEPIKSCSSTQNEPCSRHLPMLRDAWSVLGARPGAAACPTPPEEADPDRYLTTFFFFFFF [UQCC3]	5.28
MMM [Met03]	0.831
WGGLGCQCCRDPGCPGLWGRTGSPHPPTPAKGGASPESPPVRPSEPTSHPPSSQGVRAPDGPGRHPGGPATAGEGT [TMEM184A]	2.58
CGIII [SRGAP2]	1.59
